# Assays:
# [1] = molecular target: Survivin (UniProt O15392); assay: peptide pull-down, Coomassie staining; settings: reference: unmodified H3 peptide; sites T3
# [2] = molecular target: Histone-H3 (1-21) peptide phosphorylated at Thr-3 (UniProt P68431); assay: fluorescence polarisation
# [3] = molecular target: Survivin (UniProt O15392); assay: biotinylated peptide pull-down, immunoblot; settings: reference: unmodified H3(1-21) peptide; sites T3
substance,measurement,setting,value
Histone-H3 (from UniProt P68431) H3T3ph peptide,binding against the reference,[1],stronger
"xISD complex containing INCENP(1-58), Survivin and Dasra-A (from UniProt Q4V7H8 1-296)",fold enhancement of binding by T3ph against unmodified H3,[2],20 fold
Histone-H3 1-21 (from UniProt P68431) H3T3ph peptide,binding against the reference,[3],stronger

# From PMC2967368
